Experimental findings from paper PMC9363500 (Communications Biology, 2022) are described below.

Sequences and labels used below:
B3: 6×His-FAK KFL_(776–841) (domain or fragment, human, UniProt Q05397 776-841, looked up)
chain: {6×His}-HRPQEIAMWQPNVEDSTVLDLRGIGQVLPTHLMEERLIRQQQEMEEDQRWLEKEERFLKPDVRLSR
modifications: also: fluorescent label on His-tag
notes: source: E. coli, purified (nickel column, Superdex 75 SEC); not shown: His6, N-terminal, kept

Data set [1] concerns the target 6×His–PYK2 KFL_(728–839) (human) (UniProt Q14289). Description: ITC; 25 °C; 20 mM HEPES pH 7.5, 150 mM NaCl, 2 mM DTT, 5 mM Ca2+; CaM (300 µM) injected into KFL constructs in the cell (30 or 50 µM), or FERM domains (500 µM) injected into CaM (50 µM). Background: ITC needs no label: the signal is the heat of the interaction.
Data set [2] has the same target. Description: ITC; 25 °C; 20 mM HEPES pH 7.5, 150 mM NaCl, 2 mM DTT, 1 mM EGTA; CaM (300 µM) injected into PYK2 KFL728–839 (30 µM).
In data set [3] the target is B3. Description: fluorescence polarisation; fluorescence anisotropy; labelled 6×His protein at 50 nM, unlabelled MBP-fused protein serially diluted; 20 mM HEPES, 200 mM NaCl, 1 mM DTT, pH 6.5. The following applies: both partners purified.
Data set [4] concerns the target T1, 6×His-FAK KFL_(776–841) (human, UniProt Q05397 776-841, fluorescent label from the NanoTemper His-tag labelling kit (MST, fluorescence anisotropy)).
T1 chain: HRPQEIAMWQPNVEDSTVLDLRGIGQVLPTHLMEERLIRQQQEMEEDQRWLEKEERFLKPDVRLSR
The data set can be described thus: FP.

The next data set concerns the target T2, FAK KFL 776-841 (Homo sapiens, UniProt Q05397).
T2 chain: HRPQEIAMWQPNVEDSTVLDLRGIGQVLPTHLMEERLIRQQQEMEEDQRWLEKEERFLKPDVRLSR
Description: MST (self-association).

Data set [5] deals with the molecule itself. Description: MST; labelled 6×His protein at 50 nM, unlabelled protein serially diluted; 20 mM HEPES, 200 mM NaCl, 1 mM DTT, pH 6.5; dimer to monomers.
Data set [6] deals with the molecule itself. Description: SEC-MALS; Superdex 200; 20 mM HEPES, 200 mM NaCl, 2 mM DTT, pH 6.5 and 7.5; DAWN MALS detector. Background: SEC sorts molecules by how far they enter the pores of the column.

Take “6×His–CaM (recombinant calmodulin) (from UniProt P0DP23 1-149) (natural protein)”: the stoichiometry N in data set [1] and in data set [2] was 1 in each case.

B1: MBP–FAK KFL_(776–841) (domain or fragment, human, UniProt Q05397 776-841, looked up)
chain: HRPQEIAMWQPNVEDSTVLDLRGIGQVLPTHLMEERLIRQQQEMEEDQRWLEKEERFLKPDVRLSR
notes: not shown: MBP, N-terminal, kept
In the case of B1, the binding result with 6×His-FAK KFL_(776–841) [3] was “binds”. Further, in the data set with 6×His-FAK KFL_(776–841) [4], binding was put at a Kd of 0.73 µM.

B2: FAK KFL 776-841 (protein)
chain: HRPQEIAMWQPNVEDSTVLDLRGIGQVLPTHLMEERLIRQQQEMEEDQRWLEKEERFLKPDVRLSR
modifications: not fully specified
For the molecule B2, the Kd – broadly, the constant that tells how readily two partners part at equilibrium – with FAK KFL 776-841 was 0.848 µM.
In data set [5], B3 registered a Kd of roughly 0.8 µM. Also, the stoichiometry N (usually a count of units in the complex or per binding partner) in data set [6] was 2.
